Data set [1] can be described thus: folding stability dG unfold from chymotrypsin proteolysis; higher = more stable. A digest of the protocol: (§1)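 Sequencing followed digestion of designed mini-proteins with trypsin and chymotrypsin, each at 11 concentrations in threefold dilutions together with a no-protease condition. The mini-proteins were under 80 residues, had no cysteine, sat in a PA-tagged cDNA display construct, and were kept only if AlphaFold2 dimer inter-PAE was above 15. From the counts, Bayesian fitting gave K50, and unfolding free energy was derived against a sequence-predicted unfolded-state K50 and a shared folded-state K50, per protease or combined.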

The nature of data set [2]: folding stability dG unfold from trypsin proteolysis; higher = more stable. A digest of the protocol:
as §1

The nature of data set [3]: folding stability dG unfold (combined trypsin and chymotrypsin); higher = more stable. In outline:
as §1

± gives the half width of the 95% confidence interval.

“SAGGMITLTVTREDWDTVYAKLKAEKNVTVKVVKGNTWSTYPASEVKALREEIPADPNEPLTLEIVESAGGS [r16_377_JUSTAS]”: the figures for the “folding stability dG unfold” value in data set [1], in data set [2] and in data set [3] were 0.382 ± 0.24 kcal/mol, 0.0201 ± 0.18 kcal/mol and 0.283 ± 0.23 kcal/mol, respectively.
Taken in the same sequence, the figures for “SAGGMIVANVNPETDKVTLLITRPVVLYDEETGELREEEVTLVITASLEELEKLEEESGLPLLIIPSSAGGS [r8_337_TrMRF]” were 2.16 ± 0.071 kcal/mol, 1.63 ± 0.1 kcal/mol and 1.92 ± 0.15 kcal/mol.
As to “SAGGMIVEEETKPTPPLPDGTLVTESKVTIYINGKKITTTVKTTTLPDGTKVVETTLKGKKLKIILESAGGS [r16_448_JUSTAS]”, the “folding stability dG unfold” value in data set [1] was 3.193 ± 0.027 kcal/mol; in data set [2] it was 2.26 ± 0.07 kcal/mol; in data set [3] it was 2.98 ± 0.075 kcal/mol.
As to “SAGGMIVTTIPGSPAIKVEIPFPETPFSATITIPIAPDGTVTADLKPHPDMSEELIEKIKELAKELLKSAGG [r13_139_JUSTAS]”, the “folding stability dG unfold” value was found to be 0.829 ± 0.037 kcal/mol in data set [1], 1.03 ± 0.024 kcal/mol in data set [2] and 0.849 ± 0.092 kcal/mol in data set [3].
The matching figures for “SAGGMKEITLPNGVKITEVIEKDGYYYIKIYNKKTGKVYEIKVKKGEKIEIKFPKGSTVTKIEIVKKSAGGS [r16_123_TrROS_Hall]”: 3.24 ± 0.066 kcal/mol, 1.7 ± 0.04 kcal/mol and 2.8 ± 0.095 kcal/mol.
The matching figures for “SAGGMKIEIELEDGYLRVKIYDKDGKLIEEIEIKIEKVEPPPEVEVELSPEELAKKLGVEIEIKEKESAGGS [r16_778_TrROS_Hall]”: 2.38 ± 0.2 kcal/mol, 1.62 ± 0.18 kcal/mol and 2.32 ± 0.44 kcal/mol.
Taken in the same sequence, the figures for “SAGGMKIEKIFSSEEEAKAAAEKIKNETPEGKELKIEISKIPLKENLPPESPEILDEERYIVKVELPSAGGS [r16_795_JUSTAS]” were 0.116 ± 0.42 kcal/mol, 0.816 ± 0.078 kcal/mol and 0.467 ± 0.24 kcal/mol.
“SAGGMKIIEIEDRGPGKFAGPETVLEALRKALPGIPIEVLDYDPEKHVIRIRVPEEAVPRIVEAFKSSAGGS [r8_235_TrMRF]”: the figures for the “folding stability dG unfold” value in data set [1], in data set [2] and in data set [3] were 3.96 ± 0.056 kcal/mol, 3.68 ± 0.098 kcal/mol and 3.88 ± 0.057 kcal/mol, respectively.
The matching figures for “SAGGMKIIPITPEMIEEAKKLGLTPEDEAFEFEVTLPNGEVLRGTLIIPPDNPDIPVEAEPYLNLDKSAGGS [r16_497_TrMRF]”: 0.904 ± 0.092 kcal/mol, 0.555 ± 0.1 kcal/mol and 0.703 ± 0.18 kcal/mol.
The matching figures for “SAGGMKIKLKDGSEITIGSEPGRLVIVLRPPGPRSRKVIPFPVPSKEHGFVAAVNELLSLEDIEEIEPSAGG [r13_579_TrMRF]”: 1.34 ± 0.077 kcal/mol, 0.379 ± 0.11 kcal/mol and 1.15 ± 0.2 kcal/mol.
With “SAGGMKIKLKNGKVIEIKKKPGYIEIKIIDKKTKKVYTYTFKSKDGKISLEDLAKKLAELPNIKEIIPSAGG [r13_579_TrROS_Hall]”, the results for the “folding stability dG unfold” value in data set [1], in data set [2] and in data set [3] were 4.48 ± 0.15 kcal/mol, 3.3 ± 0.29 kcal/mol and 4.27 ± 0.32 kcal/mol, respectively.
The matching figures for “SAGGMKIKTKSGKELTLKKIKLKYKNKEYEIENLKIKAIKYDPKKKIVHIEVTHPNGKKYTFDLKIKSAGGS [r8_215_TrMRF]”: 3.49 ± 0.086 kcal/mol, 1.69 ± 0.052 kcal/mol and 2.8 ± 0.21 kcal/mol.
Regarding “SAGGMKIRIPEGQEVKLKKVRFWHNGKPWKIPNMEIKVDRIDPNDNRVQIEIKHPNGRPHTFAFDIKSAGGS [r8_215_TrROS]”, the “folding stability dG unfold” value in data set [1] came to 0.456 ± 0.13 kcal/mol; in data set [2], 0.459 ± 0.11 kcal/mol; in data set [3], 0.512 ± 0.086 kcal/mol.
Take “SAGGMKITITYDKETKTITVKITYPDGTTEELTIEVPPEKKTPEEIAEELKKLIEERFGKKVEIEIVSAGGS [r8_166_TrROS_Hall]”: the figures for the “folding stability dG unfold” value in data set [1], in data set [2] and in data set [3] were 2.45 ± 0.18 kcal/mol, 3.82 ± 0.26 kcal/mol and 2.98 ± 0.15 kcal/mol, respectively.
On to “SAGGMKITKEGNELTLTYPNLTVTYDPNTGKMTITNPATGKTVTIPVPATSLEEKLAAVEEVKAALPSAGGS [r8_447_JUSTAS]”, for which the “folding stability dG unfold” value stood at 0.707 ± 0.042 kcal/mol in data set [1], 1.06 ± 0.025 kcal/mol in data set [2] and 0.918 ± 0.041 kcal/mol in data set [3].
The matching figures for “SAGGMKITLPPGAEITEVFELPDGQLLLRVRHKDTGKTEVVPASDLEIEIEPGEEVEVEIFRVPKEDLSAGG [r13_173_TrROS_Hall]”: 1.45 ± 0.13 kcal/mol, 1.38 ± 0.069 kcal/mol and 1.39 ± 0.14 kcal/mol.
On to “SAGGMKIVEITEEVPPGAVVRITFEDGSKREIKIPNVAELKGKKITLELPGLKVVKIEVVPAKEGEEVSAGG [r13_587_TrROS_Hall]”, for which the entries for the “folding stability dG unfold” value in data set [1], in data set [2] and in data set [3] were 1.69 ± 0.29 kcal/mol, 2.3 ± 0.15 kcal/mol and 2.05 ± 0.48 kcal/mol, respectively.
Take “SAGGMKKITITIPLEELKNLTPEERKEKLKELAEEIAKKLGLPPGAKIKKIEVEEVDGKLYVKIEIESAGGS [r16_368_TrROS_Hall]”: the “folding stability dG unfold” value is 3.93 ± 0.066 kcal/mol in data set [1], 3.82 ± 0.18 kcal/mol in data set [2] and 3.92 ± 0.1 kcal/mol in data set [3].
The matching figures for “SAGGMKKTVTITITEELPTETGEYKTKTVTTTLTVTPPPPEVTEEEKLREKALKENPNVSPDDPKALLSAGG [r13_136_JUSTAS]”: 0.535 ± 0.11 kcal/mol, -0.948 ± 0.6 kcal/mol and 0.153 ± 0.14 kcal/mol.
On to “SAGGMKLEFEAEITVPLPVPTPEGGLEFVPITEPIRIEAEHPEELEIALKEAELETIERALKELGIESAGGS [r16_339_TrMRF]”, for which the “folding stability dG unfold” value in data set [1] was -0.723 ± 0.16 kcal/mol; in data set [2] it was -0.594 ± 0.19 kcal/mol; in data set [3], -0.845 ± 0.59 kcal/mol.
The matching figures for “SAGGMKLVVTKVGEDDNTEYYLITDPGSAEAIREAIKKLVPKDLPYKVTVLSYDPATGTYTVLVEVKRSAGG [r13_491_JUSTAS]”: 3.67 ± 0.039 kcal/mol, 2.91 ± 0.13 kcal/mol and 3.44 ± 0.11 kcal/mol.
The matching figures for “SAGGMKPGEKVLVKITLKKEVFKNENGEEVKVEEKEILIELEVDSLEEALEALKKLLPPGAEIEVLPSAGGS [r16_282_TrROS_Hall]”: 3.1 ± 0.047 kcal/mol, 3.52 ± 0.13 kcal/mol and 3.24 ± 0.13 kcal/mol.
Taken in the same sequence, the figures for “SAGGMKPGESSTVPPVVERTTSPDSLGNPRYTVTRVTEITVTYFPDSINVTVTTETTVVSTATPGLLSAGGS [r8_70_JUSTAS]” were 1.15 ± 0.031 kcal/mol, 2.2 ± 0.059 kcal/mol and 1.78 ± 0.07 kcal/mol.
Consider “SAGGMKPGQPWHEIEVQREIDLPPGQISAEEIADLIAELFPGFRVEDFRIEFTGKKWRIDVTIYIPYSAGGS [r8_202_TrROS]”, for which the “folding stability dG unfold” value in data set [1] came to 3.49 ± 0.039 kcal/mol; in data set [2], 2.56 ± 0.073 kcal/mol; in data set [3] it was 3.14 ± 0.11 kcal/mol.
The matching figures for “SAGGMKTAVLTLEVPGLPKRLVLIAGESEEEYKKLAAEAEKPGYEFLGYTTLEELVERTGLPASLLLSAGGS [r16_438_JUSTAS]”: 1.07 ± 0.28 kcal/mol, 0.916 ± 0.085 kcal/mol and 0.969 ± 0.19 kcal/mol.
Taken in the same sequence, the figures for “SAGGMKTFEKPMTAEEVMALLEEIAKKGNVNVTIETEGKTYEVDPSKAKPIPPENVTAKITITELPKSAGGS [r16_628_JUSTAS]” were -0.182 ± 0.17 kcal/mol, -0.051 ± 0.15 kcal/mol and 0.186 ± 0.28 kcal/mol.
On to “SAGGMKTLRLVVTVKVPKETGKPTVAEKLAEELAKLPGVEVVKVEVKRLENGTVVVTIEIKVPKELKPSAGG [r13_428_TrROS_Hall]”, for which the “folding stability dG unfold” value in data set [1] came out at 3.36 ± 0.061 kcal/mol; in data set [2], 3.13 ± 0.23 kcal/mol; in data set [3], 3.18 ± 0.13 kcal/mol.
Taken in the same sequence, the figures for “SAGGMKTVEIEIPVPPGMSIEELVKKLLEELKKKKDIKEVEIEITLKDGSKIKIRVNKNGKIVKVEKLSAGG [r13_690_TrROS_Hall]” were 2.46 ± 0.11 kcal/mol, 1.73 ± 0.056 kcal/mol and 2.25 ± 0.15 kcal/mol.
Taken in the same sequence, the figures for “SAGGMKVKKIPVIVKILRKKDKKPIKEIPALAYKVDDKIYLVFEKPKDIKIAKEIAEKTGLPIEIYPSAGGS [r16_327_TrMRF]” were 2.02 ± 0.062 kcal/mol, 1.01 ± 0.025 kcal/mol and 1.66 ± 0.066 kcal/mol.
Taken in the same sequence, the figures for “SAGGMKVRIRIEVDGKTLELELEVEPGETVKITLEVNGEEVTITFDAATGEITIELPPGAKIVEIEPSAGGS [r16_761_TrROS_Hall]” were 4.52 ± 0.46 kcal/mol, 3.56 ± 0.23 kcal/mol and 4.01 ± 0.39 kcal/mol.
With “SAGGMKVTILEVKPDEVVVKTSDGKTYVFPEVIKELKEKGGGVLPTKEEIAEYLKKNNIPVDDVEFGLSAGG [r13_610_JUSTAS]”, the “folding stability dG unfold” value in data set [1] came to 1.9 ± 0.058 kcal/mol; in data set [2], 0.436 ± 0.1 kcal/mol; in data set [3], 1.6 ± 0.15 kcal/mol.
The matching figures for “SAGGMKVTPNGKVVKKKPKVPVKKVTLTVKVKTAEEAKALADALRDLGYKVTVDEETGVVTVEVEIESAGGS [r16_765_TrROS_Hall]”: 1.5 ± 0.058 kcal/mol, 0.996 ± 0.079 kcal/mol and 1.28 ± 0.1 kcal/mol.
As to “SAGGMKVTRLPNALVFEYPLPNSTLRIVVTPGDGTYTLELYRDGKLIATFPSPGPVADLVEAAIKALSAGGS [r8_276_TrMRF]”, the “folding stability dG unfold” value in data set [1] worked out at 3.2 ± 0.033 kcal/mol; in data set [2], 2.55 ± 0.053 kcal/mol; in data set [3], 3.01 ± 0.073 kcal/mol.
With “SAGGMKVTTKPLPSDSEVVDIPGGVTMKIDPKTGVGTITLPDGKTLKMTITKDPNKNTTTITITPESSAGGS [r8_186_JUSTAS]”, the “folding stability dG unfold” value in data set [1] turned out to be 1.14 ± 0.2 kcal/mol; in data set [2], 0.366 ± 0.16 kcal/mol; in data set [3] it was 0.998 ± 0.22 kcal/mol.
Take “SAGGMKVVIYVKDPEKFLKAIEEIENIPLENVKFEPLEGDYYKYEFPNLEAVEELIKKGYDILKIEPSAGGS [r16_381_TrMRF]”: the entries for the “folding stability dG unfold” value in data set [1], in data set [2] and in data set [3] were 2.57 ± 0.03 kcal/mol, 1.96 ± 0.09 kcal/mol and 2.34 ± 0.083 kcal/mol, respectively.
